Measured values: PMC11321042, “An invariant C-terminal tryptophan in McdB mediates its interaction and positioning function with carboxysomes” (Molecular Biology of the Cell, 2024)

Biological target: the molecule itself
Assay: SEC-MALS; 50 µl at 1.5 mg/ml on a Shodex PROTEIN KW-804 column, 0.4 ml/min, 150 mM KCl, 20 mM Tris-HCl pH 8.2

Row | Protein | stoichiometry N
1 | Maintenance of carboxysome distribution protein B (McdB) from Synechococcus elongatus PCC 7942, wild type (natural protein, UniProt Q8GJM6 1-152, looked up, McdB of Synechococcus elongatus PCC 7942; also called Se McdB; β-McdB; source: E. coli BL21-AI, purified (HisTrap, Ulp1 cleavage, SEC); not shown: His-SUMO, N-terminal, cleaved) MTDAFDRLKKRSRTPIAREGSLTTGPELSDRPLQLLPREFETFCDRYAVHAGDVIEAALDLVLLDPDLQQRLLQRLRQGNGSDRVWLGTACPRSWQQQLQQQAQDQGLSEADLLQEAIAQRLDLVLGQTTLREEVTLLRQELDQLKRKLHGW | 6
2 | Se McdB[∆W152] (natural protein, Synechococcus elongatus PCC 7942, UniProt Q8GJM6 1-152, looked up, McdB of Synechococcus elongatus PCC 7942 with the final C-terminal tryptophan W152 deleted; Parent is m1; source: E. coli BL21-AI, purified (HisTrap, Ulp1 cleavage, SEC); not shown: His-SUMO, N-terminal, cleaved) MTDAFDRLKKRSRTPIAREGSLTTGPELSDRPLQLLPREFETFCDRYAVHAGDVIEAALDLVLLDPDLQQRLLQRLRQGNGSDRVWLGTACPRSWQQQLQQQAQDQGLSEADLLQEAIAQRLDLVLGQTTLREEVTLLRQELDQLKRKLHG | 6
